In test [1] the target is CtIP (residues 45-897), human, from pCMV-HA-ns311 (human, UniProt Q99708 45-897). Nature of the test: co-immunoprecipitation (anti-Flag) / anti-CtIP western blot, transfected 293T cells. The protocol:
(§1) FIG. 6: Interaction between LM04 and CtIP requires a single LIM domain and appears to be specific for the LMO subclass. A, CtIP associates with LMO4 and LMO2. […] Lysates were prepared and proteins immunoprecipitated with the indicated specific antisera. F, Flag; C, control isotype-matched monoclonal antibody. Immunoblotting was performed with the antibodies indicated under each panel. Lane 4 depicts the reciprocal immunoprecipitation experiment performed using an anti-CtIP antibody. The 25 kD bands in lane 4 represent light chain. Western blot analysis of lysates confirmed expression of CtIP and LMO proteins. Note the different size markers indicated for LMO proteins detected by western analysis using anti-Flag antibody (lane 4). B, The first LIM domain but not the second LIM domain of LMO4 interacts with CtIP. […] Cell extracts were immunoprecipitated with anti-Flag (F) antibody, then immunoblotted with anti-CtIP antisera. Western blot analysis of lysates confirmed expression of CtIP and LIM polypeptides (lower panels). […] Cell extracts were immunoprecipitated with anti-Flag (F) antibody, then immunoblotted with anti-CtIP antibody. Western blot analysis of lysates confirmed expression of CtIP and LIM proteins (lower panels). D, Interaction between endogenous LMO4 and CtIP proteins in HBL100 epithelial cells. […]

For test [2], the target named is BRCA1 activation domain (amino acids 1293-1863) fused to the Gal4 DNA-binding domain (human, UniProt P04386 1-147; P38398 1293-1863). The experiment in a line: cell-based or functional assay.
Another test addresses T1, HA-CtIP (59-320) (human, UniProt Q99708 59-320).
T1 construct: range 59-320
The experiment in a line: co-immunoprecipitation (anti-Flag) / anti-HA western blot, transfected 293T cells. The protocol:
(§2) FIG. 7: Two regions within CtIP specifically interact with LMO4. A, Schematic representation of wild-type CtIP and deletion mutant constructs that were tested for interaction with LMO4 in mammalian cells. The region that associates with BRCA1 and two putative leucine zipper (LZ) domains are indicated. A summary of each mutant's ability to interact with LMO4 is shown. […] Lysates were prepared and proteins immunoprecipitated using anti-Flag monoclonal antibody (F) or control isotype-matched (C) monoclonal antibody. After SDS-PAGE electrophoresis, western blotting was performed using α-HA antibody, specific for CtIP protein. Western blot analysis confirmed expression of Flag-LMO4 and CtIP mutant proteins (lower panels).
(§3) Cell extracts (0.5 ml) were prepared in whole cell lysis buffer (150 mM NaCl, 5 mM EDTA, 50 mM Tris pH7.5, 1% Nonidet P-40, 1 mM DTT) containing protease inhibitors (1 mM phenylmethylsulfonyl fluoride, 1 μg/ml leupeptin, 1 μg/ml pepstatin, 1 μg/ml aprotinin) and normalised for protein concentration, as determined by Bradford analysis (BioRad). Proteins were immunoprecipitated with either anti-Flag M2 (Sigma) or anti-myc 9E10 and protein G sepharose (Amersham Pharmacia Biotech.), and separated by SDS-PAGE (Novex). […]
For orientation: In western blotting, separated proteins are transferred to a membrane and probed.

The next test deals with HA-CtIP (281-620) (human, UniProt Q99708 281-620). Described as above. How it is done:
as §2, §3

Test [3] concerns the target T2, endogenous CtIP of human HBL100 breast epithelial cells (human, UniProt Q99708 1-897).
T2 construct: mature; also called native CtIP
The experiment in a line: immunoprecipitation of HBL100 nuclear extracts with anti-LMO4 antisera / anti-CtIP western blot (FIG. 6D). How it is done:
as §1, with “A,” for “FIG. 6: Interaction between LM04 and CtIP requires a single LIM domain and appears to be specific for the LMO subclass. A,”, “cells. Nuclear extracts were immunoprecipitated with pre-immune serum (lane 1) or anti-LMO4 antisera (lane 2), then blotted using anti-CtIP monoclonal antibody.” for “cells.”

For test [4], the target named is T3, endogenous BRCA1 of human HBL100 breast epithelial cells (human, UniProt P38398 1-1863).
T3 construct: mature; also called native BRCA1; BRCA1 (220 kD)
Nature of the test: immunoprecipitation of HBL100 nuclear lysates with rat anti-LMO4 monoclonal / anti-BRCA1 western blot (FIG. 9B). The text has this:
Nuclear lysates were immunoprecipitated with a rat anti-LMO4 monoclonal (lane 2) or control antibody (lane 3), then immunoblotted with anti-BRCA1 (upper panel) or anti-CtIP (middle panel) monoclonal antibody. The immunoprecipitate was divided between two SDS-polyacrylamide gels, one of which underwent extended electrophoresis for detection of BRCA1 (220 kD) while the other was immunoblotted with anti-CtIP antibody. As a control, immunoprecipitate was also blotted with anti-LMO4 monoclonal antibody (lower panel). Lysate from HBL100 cells was loaded in an adjacent lane to provide a size control for the respective proteins (lane 1), indicated by arrows. C, Interaction between LMO4, CtIP, BRCA1 and Ldb1 in mammalian cells. […] Western blot analysis confirmed high level expression of individual proteins in these transfectants (lane 1).
For detection of endogenous proteins, nuclear extracts from human HBL100 cells were prepared (Watters, D., Khanna, K. K., Beamish, H., Birrell, G., Spring, K., Kedar, P., Gatei, M., Stenzel, D., Hobson, K., Kozlov, S., Zhang, N., Farrell, A., Ramsay, J., Gatti, R., and Lavin, M. (1997) Oncogene 14(16), 1911-21). Proteins were immunoprecipitated with either anti-LMO4 rabbit antisera or a rat anti-LMO4 monoclonal antibody and protein G sepharose, and fractionated by SDS-PAGE. […]

For test [5], the target named is T4, HA-tagged BRCA1 SZ fragment (residues 1528-1863) (human, UniProt P38398 1528-1863, 35S-methionine-labeled in the in vitro binding assay).
T4 construct: also called BRCT (SZ) region
Nature of the test: in vitro binding of 35S-labeled BRCA1-SZ to GST-LMO4 on glutathione sepharose, SDS-PAGE. How it is done: FIG. 10: The C-terminal BRCT domains of BRCA1 mediate interaction with LMO4. […] Lysates were immunoprecipitated with anti-Flag (F) or control (C) antibody, then western blotted with anti-HA antibody. B, LMO4 and the BRCT domain interact in vitro. […] Bound proteins were analysed by SDS-PAGE. Arrow depicts the BRCA1-SZ protein. C, LMO4 and the BRCT (SZ) region of BRCA1 interact in yeast Hf7c cells. Yeast cells were cotransformed with the indicated expression vectors and plated on media deficient in his, leu and trp. Staining for β-galactosidase activity verified that the His⁺ colonies obtained for LMO4+CtIP and LMO4+BRCA1 (SZ) transformants were also β-Gal⁺. No colonies were obtained for Hf7c cells transformed with BRCA1 (SZ)+lamin, BRCA1 (SZ) alone or LMO4 alone.
Binding assays were carried out with a 10 μl aliquot of […] BRCA1-SZ primed lysate and 100 μl (50% slurry of GST-sepharose beads; Amersham Pharmacia) of GST-LMO4 or GST-only protein in GST interaction buffer (150 mM NaCl, 10 mM Tris pH 8, 0.3% NP-40, 1 mM DTT, 0.25% BSA and 0.5 mM phenylmethylsulfonyl fluoride) for 2 hours at 4° C. The beads were subsequently washed twice in GST interaction buffer containing BSA, followed by two more washes in GST interaction buffer without BSA. Finally, the bound BRCA1 C-terminal polypeptide was eluted by boiling the beads for 5 min in 30 μl loading buffer and analysed by SDS-PAGE.

Chain of CtIP (residues 45-897), human, from pCMV-HA-ns311 (Q99708 45-897 limits assumed): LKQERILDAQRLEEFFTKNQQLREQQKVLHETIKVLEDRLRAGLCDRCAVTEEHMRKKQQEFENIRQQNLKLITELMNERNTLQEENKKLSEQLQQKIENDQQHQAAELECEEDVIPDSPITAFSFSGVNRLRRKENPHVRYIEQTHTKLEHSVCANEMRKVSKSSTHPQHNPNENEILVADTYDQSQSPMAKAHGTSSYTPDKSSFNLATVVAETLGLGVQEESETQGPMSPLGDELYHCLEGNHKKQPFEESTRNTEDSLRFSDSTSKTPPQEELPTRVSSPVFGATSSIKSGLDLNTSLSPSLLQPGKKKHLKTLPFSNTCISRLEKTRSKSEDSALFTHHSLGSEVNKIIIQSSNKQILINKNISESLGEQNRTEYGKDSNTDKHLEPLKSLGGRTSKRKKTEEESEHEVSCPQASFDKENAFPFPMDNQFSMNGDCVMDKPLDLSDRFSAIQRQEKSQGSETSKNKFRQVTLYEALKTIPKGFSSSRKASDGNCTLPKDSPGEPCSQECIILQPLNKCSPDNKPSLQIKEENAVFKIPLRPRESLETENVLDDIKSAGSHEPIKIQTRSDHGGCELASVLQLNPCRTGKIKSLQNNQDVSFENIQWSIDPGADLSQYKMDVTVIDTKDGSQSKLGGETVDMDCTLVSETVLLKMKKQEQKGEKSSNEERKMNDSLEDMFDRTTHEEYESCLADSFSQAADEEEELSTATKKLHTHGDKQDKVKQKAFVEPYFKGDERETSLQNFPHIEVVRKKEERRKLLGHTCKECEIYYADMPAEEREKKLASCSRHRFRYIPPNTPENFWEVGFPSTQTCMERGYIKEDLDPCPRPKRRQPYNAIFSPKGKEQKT
T1 sequence (Q99708 59-320 limits assumed): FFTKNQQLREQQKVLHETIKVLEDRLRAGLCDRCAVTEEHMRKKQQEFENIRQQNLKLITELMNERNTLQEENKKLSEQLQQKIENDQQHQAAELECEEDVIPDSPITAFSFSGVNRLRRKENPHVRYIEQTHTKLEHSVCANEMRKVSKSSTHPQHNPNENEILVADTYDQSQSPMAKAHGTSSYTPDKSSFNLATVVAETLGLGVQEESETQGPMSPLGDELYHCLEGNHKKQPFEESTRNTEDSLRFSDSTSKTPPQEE
T4 sequence (P38398 1528-1863): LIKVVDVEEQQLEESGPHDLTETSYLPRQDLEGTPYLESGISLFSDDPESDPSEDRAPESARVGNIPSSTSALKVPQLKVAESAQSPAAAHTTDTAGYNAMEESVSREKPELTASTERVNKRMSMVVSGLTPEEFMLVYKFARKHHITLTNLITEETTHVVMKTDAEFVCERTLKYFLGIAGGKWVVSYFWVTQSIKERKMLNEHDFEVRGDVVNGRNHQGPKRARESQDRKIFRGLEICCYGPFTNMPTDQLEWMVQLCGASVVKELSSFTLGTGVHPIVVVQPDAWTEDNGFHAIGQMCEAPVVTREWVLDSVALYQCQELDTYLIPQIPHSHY
T3 sequence (P38398 whole entry): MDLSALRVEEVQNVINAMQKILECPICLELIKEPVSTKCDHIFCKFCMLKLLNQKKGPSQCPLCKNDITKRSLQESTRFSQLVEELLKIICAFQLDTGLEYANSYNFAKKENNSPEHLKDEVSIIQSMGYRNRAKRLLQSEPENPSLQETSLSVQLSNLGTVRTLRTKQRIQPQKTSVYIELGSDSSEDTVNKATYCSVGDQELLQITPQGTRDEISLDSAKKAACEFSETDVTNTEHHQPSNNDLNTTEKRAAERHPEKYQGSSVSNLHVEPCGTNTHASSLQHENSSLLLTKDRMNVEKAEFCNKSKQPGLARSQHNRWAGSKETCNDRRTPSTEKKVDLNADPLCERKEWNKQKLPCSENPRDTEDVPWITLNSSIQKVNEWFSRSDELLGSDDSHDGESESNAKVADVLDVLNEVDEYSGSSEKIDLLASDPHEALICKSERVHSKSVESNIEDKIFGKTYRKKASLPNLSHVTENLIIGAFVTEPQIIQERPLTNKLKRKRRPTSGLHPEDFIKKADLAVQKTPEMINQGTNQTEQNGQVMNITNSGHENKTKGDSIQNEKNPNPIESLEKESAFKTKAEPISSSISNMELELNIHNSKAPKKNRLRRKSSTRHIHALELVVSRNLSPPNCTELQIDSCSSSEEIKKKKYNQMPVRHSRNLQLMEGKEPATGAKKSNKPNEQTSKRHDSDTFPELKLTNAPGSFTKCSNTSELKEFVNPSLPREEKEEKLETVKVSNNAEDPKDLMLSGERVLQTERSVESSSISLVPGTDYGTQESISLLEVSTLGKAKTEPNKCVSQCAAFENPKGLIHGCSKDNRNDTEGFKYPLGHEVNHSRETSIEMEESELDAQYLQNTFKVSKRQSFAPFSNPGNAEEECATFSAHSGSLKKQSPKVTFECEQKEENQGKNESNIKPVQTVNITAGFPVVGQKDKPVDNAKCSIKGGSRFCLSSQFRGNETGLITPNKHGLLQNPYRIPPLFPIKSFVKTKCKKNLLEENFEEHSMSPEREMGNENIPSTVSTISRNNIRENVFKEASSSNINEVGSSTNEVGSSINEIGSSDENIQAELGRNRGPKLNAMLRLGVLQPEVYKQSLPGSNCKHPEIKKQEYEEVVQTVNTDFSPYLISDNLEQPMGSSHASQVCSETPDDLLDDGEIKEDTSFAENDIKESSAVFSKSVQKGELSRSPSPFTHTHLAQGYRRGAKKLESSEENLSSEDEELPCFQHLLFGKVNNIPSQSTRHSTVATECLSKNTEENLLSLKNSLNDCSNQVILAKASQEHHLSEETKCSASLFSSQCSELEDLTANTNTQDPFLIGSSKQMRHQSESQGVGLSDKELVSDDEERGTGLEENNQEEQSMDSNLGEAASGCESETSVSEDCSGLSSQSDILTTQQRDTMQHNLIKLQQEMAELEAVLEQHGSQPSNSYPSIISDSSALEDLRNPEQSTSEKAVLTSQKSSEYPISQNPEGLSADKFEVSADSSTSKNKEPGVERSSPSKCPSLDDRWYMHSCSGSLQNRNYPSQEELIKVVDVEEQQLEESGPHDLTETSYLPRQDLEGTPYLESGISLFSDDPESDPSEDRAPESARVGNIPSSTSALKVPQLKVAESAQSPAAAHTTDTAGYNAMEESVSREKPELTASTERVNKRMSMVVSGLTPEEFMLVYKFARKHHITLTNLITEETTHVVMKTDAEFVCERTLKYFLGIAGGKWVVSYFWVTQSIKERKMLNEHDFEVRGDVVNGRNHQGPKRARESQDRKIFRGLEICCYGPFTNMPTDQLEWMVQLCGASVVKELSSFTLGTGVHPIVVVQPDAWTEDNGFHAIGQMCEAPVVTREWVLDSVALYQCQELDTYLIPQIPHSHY
T2 sequence (Q99708 whole entry): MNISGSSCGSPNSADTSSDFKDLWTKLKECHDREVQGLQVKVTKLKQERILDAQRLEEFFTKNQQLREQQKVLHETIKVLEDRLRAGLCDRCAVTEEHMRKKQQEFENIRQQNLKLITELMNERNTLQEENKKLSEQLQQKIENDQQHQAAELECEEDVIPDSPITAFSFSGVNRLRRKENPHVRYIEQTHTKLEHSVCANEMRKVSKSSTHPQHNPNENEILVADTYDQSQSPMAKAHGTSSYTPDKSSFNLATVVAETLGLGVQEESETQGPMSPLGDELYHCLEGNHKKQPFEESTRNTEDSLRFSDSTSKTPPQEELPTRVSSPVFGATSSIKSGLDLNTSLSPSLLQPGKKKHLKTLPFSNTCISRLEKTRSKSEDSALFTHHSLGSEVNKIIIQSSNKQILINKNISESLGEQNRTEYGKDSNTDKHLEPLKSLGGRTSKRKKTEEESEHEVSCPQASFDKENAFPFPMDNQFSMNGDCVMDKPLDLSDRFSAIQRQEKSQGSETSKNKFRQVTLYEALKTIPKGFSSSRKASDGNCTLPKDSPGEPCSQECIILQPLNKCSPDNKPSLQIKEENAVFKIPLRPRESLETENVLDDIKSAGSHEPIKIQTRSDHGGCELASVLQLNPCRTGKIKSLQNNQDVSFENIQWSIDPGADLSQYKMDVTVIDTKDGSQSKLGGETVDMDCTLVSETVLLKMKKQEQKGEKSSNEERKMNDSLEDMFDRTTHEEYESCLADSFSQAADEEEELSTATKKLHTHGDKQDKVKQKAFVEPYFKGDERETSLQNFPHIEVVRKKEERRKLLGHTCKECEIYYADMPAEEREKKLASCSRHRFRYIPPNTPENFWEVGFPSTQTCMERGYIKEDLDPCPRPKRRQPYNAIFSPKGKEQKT
Chain of HA-CtIP (281-620) (Q99708 281-620 limits assumed): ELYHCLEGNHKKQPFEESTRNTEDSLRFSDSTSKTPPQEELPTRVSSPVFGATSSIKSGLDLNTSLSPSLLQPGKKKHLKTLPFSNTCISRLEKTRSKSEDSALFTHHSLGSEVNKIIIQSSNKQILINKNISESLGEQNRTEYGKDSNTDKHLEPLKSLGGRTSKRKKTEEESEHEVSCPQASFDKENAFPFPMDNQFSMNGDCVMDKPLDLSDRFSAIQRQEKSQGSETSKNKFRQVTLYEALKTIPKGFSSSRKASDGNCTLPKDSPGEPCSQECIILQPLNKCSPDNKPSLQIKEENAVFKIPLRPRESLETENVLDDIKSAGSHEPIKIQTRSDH

B1: Flag-tagged second LIM domain of LMO4 (residues 79-165) (other, UniProt P61968 79-165, looked up, not shown: small tags and cut ends)
chain: RLFGNSGACSACGQSIPASELVMRAQGNVYHLKCFTCSTCRNRLVPGDRFHYINGSLFCEHDRPTALINGHLNSLQSNPLLPDQKVC
notes: also called LIM2
As to B1, the binding result in test [1] is “no binding”.

B2: Flag-tagged LMO4 (full-length) (other, UniProt P61968 1-165, looked up, not shown: small tags and cut ends)
chain: MVNPGSSSQPPPVTAGSLSWKRCAGCGGKIADRFLLYAMDSYWHSRCLKCSCCQAQLGDIGTSCYTKSGMILCRNDYIRLFGNSGACSACGQSIPASELVMRAQGNVYHLKCFTCSTCRNRLVPGDRFHYINGSLFCEHDRPTALINGHLNSLQSNPLLPDQKVC
notes: mature; also called Flag-LMO4; LM04
B2: the “transcription of the Gal4-CAT reporter gene in 293T cells (CAT ELISA)” value in test [2] is approximately 3 fold. Besides, the binding result with HA-CtIP (59-320) and in the test with HA-CtIP (281-620) was “no binding” in each case.

B3: endogenous LMO4 of human HBL100 breast epithelial cells (other, UniProt P61968 1-165, looked up)
chain: MVNPGSSSQPPPVTAGSLSWKRCAGCGGKIADRFLLYAMDSYWHSRCLKCSCCQAQLGDIGTSCYTKSGMILCRNDYIRLFGNSGACSACGQSIPASELVMRAQGNVYHLKCFTCSTCRNRLVPGDRFHYINGSLFCEHDRPTALINGHLNSLQSNPLLPDQKVC
notes: mature; also called native LMO4; 17 kD LMO4 protein
Regarding B3, the binding result in test [3] and in test [4] was “binds” in each case.

B4: GST-LMO4 fusion protein (full-length mouse LMO4 in pGEX-2T) (other, UniProt P61969 1-165, looked up)
chain: MVNPGSSSQPPPVTAGSLSWKRCAGCGGKIADRFLLYAMDSYWHSRCLKCSCCQAQLGDIGTSCYTKSGMILCRNDYIRLFGNSGACSACGQSIPASELVMRAQGNVYHLKCFTCSTCRNRLVPGDRFHYINGSLFCEHDRPTALINGHLNSLQSNPLLPDQKVC
notes: mature; Expressed in bacterial strain UT5600, immobilised on glutathione sepharose; not shown: glutathione-S-transferase as encoded by pGEX-2T; linker to LMO4 not described
As for B4, the binding result in test [5] was “binds”.

Source of the values: patent US20050048528A1 (WALTER AND ELIZA HALL INSTITUTE OF MEDICAL RESEARCH, published 2005).
